For test [1], the target named is T1, Anti-CD28 Fab (SEQ ID NOs: 696, 697).
T1 construct: Biotinylated and captured on neutravidin coated plates in the phage ELISA
Description: phage binding ELISA, clonal phage on biotinylated anti-CD28 Fab captured on neutravidin plates.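 Also: crude clonal phage supernatants added to wells pretreated with CD28 antigen or blocking buffer only, bound phage detected by HRP-linked anti-M13 antibody.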 In general terms: An ELISA detects its analyte on a solid surface through an enzyme-linked reagent.
T1 sequence (VH, as listed by the source, chain 1 of 2): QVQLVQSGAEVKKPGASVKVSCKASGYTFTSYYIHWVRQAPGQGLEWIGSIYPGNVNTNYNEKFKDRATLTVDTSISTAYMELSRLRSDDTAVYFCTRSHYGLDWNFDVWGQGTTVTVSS
T1 sequence (VL, as listed by the source, chain 2 of 2): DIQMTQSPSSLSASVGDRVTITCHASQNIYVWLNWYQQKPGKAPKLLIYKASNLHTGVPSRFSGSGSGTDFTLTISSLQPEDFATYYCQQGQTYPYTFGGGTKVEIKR

Test [2] has the same target. Description: phage binding ELISA on plate-bound anti-CD28 Fab, wells pre-incubated with CD28 antigen as competitor.
Target sequence in this assay (VH, as listed by the source, chain 1 of 2): as the sequence (VH, as listed by the source, chain 1 of 2) above
Target sequence in this assay (VL, as listed by the source, chain 2 of 2): as the sequence (VL, as listed by the source, chain 2 of 2) above
Description: (§1) After panning, phage infected bacteria were plated out and colonies picked into 96 well blocks. Clonal phage was then amplified and separated from bacterial cells via centrifugation.
(§2) Clonal phage were harvested as crude supematants and screened via standard ELISAs. […] Prior to the addition of clonal phage, wells were incubated with blocking buffer and CD28 antigen or blocking buffer alone. Without washing or aspirating, clonal phage supematants were then added to the wells and incubated for a short time. Wells were then washed followed by detection of bound phage using a horse radish conjugated anti-M13 antibody. Clonal phage of interest were then sent for sequence analysis.
In test [3] the target is T2, Anti-CD28 Fab (SEQ ID NOs: 696, 697).
T2 construct: In the phage ELISA the Fab was biotinylated and captured on neutravidin coated plates
The test is described as follows: phage ELISA on captured anti-CD28 Fab; competitor: CD28 antigen pre-incubated in the well.
T2 sequence (VH, as listed by the source, chain 1 of 2): as the sequence (VH, as listed by the source, chain 1 of 2) above
T2 sequence (VL, as listed by the source, chain 2 of 2): as the sequence (VL, as listed by the source, chain 2 of 2) above
Description: as §1, §2

For test [4] the target is unchanged. The test is described as follows: phage ELISA; biotinylated anti-CD28 Fab on neutravidin plate, bound phage detected with anti-M13-HRP.
Target sequence in this assay (VH, as listed by the source, chain 1 of 2): as the sequence (VH, as listed by the source, chain 1 of 2) above
Target sequence in this assay (VL, as listed by the source, chain 2 of 2): as the sequence (VL, as listed by the source, chain 2 of 2) above
Description: as §1, §2
The target in test [5] is T3, Anti-CD28 Fab (SEQ ID NOs: 696, 697).
T3 construct: In the phage ELISA the Fab was biotinylated and captured on neutravidin coated plates
The test is described as follows: phage binding ELISA on Fab coated plate; wells pre-incubated with CD28 antigen as competitor.
T3 sequence (VH, as listed by the source, chain 1 of 2): as the sequence (VH, as listed by the source, chain 1 of 2) above
T3 sequence (VL, as listed by the source, chain 2 of 2): as the sequence (VL, as listed by the source, chain 2 of 2) above
Description: as §1, §2

Test [6] shares this target. Description: phage binding ELISA; biotinylated Fab on neutravidin plate, clonal phage supernatant, anti-M13 HRP detection.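 Also: phage from clones picked after panning, added to wells pre-incubated with blocking buffer with or without CD28 antigen, then briefly incubated and washed before detection.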
Target sequence in this assay (VH, as listed by the source, chain 1 of 2): as the sequence (VH, as listed by the source, chain 1 of 2) above
Target sequence in this assay (VL, as listed by the source, chain 2 of 2): as the sequence (VL, as listed by the source, chain 2 of 2) above
Description: as §1, §2

Where no end group is shown, it is not given here.

B1: Phage-865 (peptide)
peptide: YCAGHSQEHIQKCL
notes: Peptide-87 library clone, tested as clonal phage (peptide fused to pIII)
As for B1, the “Anti-CD28 Fab (SEQ ID NOs: 696, 697) signal” value in test [1] was 1.73. For the same molecule, the “Anti-CD28 Fab signal in the presence of CD28” value (from here on “Anti-CD28 Fab signal … of CD28”) in test [2] worked out at 0.09.

B2: Phage-856 (peptide)
peptide: YCDGHYPEYMSKCL
notes: as for B1
Take B2: the “Anti-CD28 Fab (SEQ ID NOs: 696, 697) signal” value in test [1] amounted to 1.75. Besides, in test [2], the “Anti-CD28 Fab signal … of CD28” value is 0.06.

B3: Phage-882 (peptide)
peptide: YCDGHLVEYRGKCL
modifications: cysteine pairing not given here; also: fused to phage pIII
notes: not shown: pIII filament protein of the bacteriophage to which the peptide is fused
Turning to B3, the “Anti-CD28 Fab signal … of CD28” value in test [3] came out at 0.07. In addition, in test [4], the “Anti-CD28 Fab signal (phage binding ELISA)” value was determined as 1.71.

B4: Phage-875 (peptide)
peptide: YCEGHSEMYMKKCL
notes: not shown: pIII coat protein of the bacteriophage to which the peptide is fused
Turning to B4, in test [5], the “Anti-CD28 Fab signal … of CD28” value amounted to 0.07. The “Anti-CD28 Fab (SEQ ID NOs: 696, 697) signal” value in test [6] was found to be 1.72.

B5: Phage-879 (peptide)
peptide: YCEGHSVQYMQKCL
notes: as for B3
On to B5, for which, in test [3], the “Anti-CD28 Fab signal … of CD28” value was determined as 0.06. In addition, the “Anti-CD28 Fab signal (phage binding ELISA)” value in test [4] came out at 1.71.

B6: Phage-874 (peptide)
peptide: YCDGHLSEYMAKCL
notes: as for B4
With B6, the “Anti-CD28 Fab signal … of CD28” value in test [5] stood at 0.08. Besides, the “Anti-CD28 Fab (SEQ ID NOs: 696, 697) signal” value in test [6] turned out to be 1.72.

B7: Phage-886 (peptide)
peptide: YCDGHLPEYFLKCL
modifications: cysteine pairing not given here; also: fused to phage pIII
notes: as for B3
Take B7: the “Anti-CD28 Fab signal … of CD28” value in test [3] turned out to be 0.11. For the same molecule, the “Anti-CD28 Fab signal (phage binding ELISA)” value in test [4] was determined as 1.71.

B8: Phage-873 (peptide)
peptide: YCDGHAAEFMMKCL
notes: as for B4
Regarding B8, in test [5], the “Anti-CD28 Fab signal … of CD28” value came to 0.06. The “Anti-CD28 Fab (SEQ ID NOs: 696, 697) signal” value in test [6] is 1.72.

B9: Phage-864 (peptide)
peptide: YCEGHLQTYMAKCL
notes: as for B1
For the molecule B9, in test [1], the “Anti-CD28 Fab (SEQ ID NOs: 696, 697) signal” value came out at 1.73. Moreover, in test [2], the “Anti-CD28 Fab signal … of CD28” value is 0.07.

B10: Phage-857 (peptide)
peptide: YCDGHASEYMAKCL
notes: as for B1
Regarding B10, in test [1], the “Anti-CD28 Fab (SEQ ID NOs: 696, 697) signal” value worked out at 1.75. Further, in test [2], the “Anti-CD28 Fab signal … of CD28” value is 0.09.

B11: Phage-876 (peptide)
peptide: YCDGHLQIYLWKCL
notes: as for B4
As for B11, the “Anti-CD28 Fab signal … of CD28” value in test [5] was found to be 0.07. For the same molecule, the “Anti-CD28 Fab (SEQ ID NOs: 696, 697) signal” value in test [6] turned out to be 1.72.

B12: Phage-878 (peptide)
peptide: YCDGHAAEYMDKCL
notes: as for B4
Regarding B12, the “Anti-CD28 Fab signal … of CD28” value in test [5] came to 0.07. In test [6], the “Anti-CD28 Fab (SEQ ID NOs: 696, 697) signal” value was 1.72.

B13: Phage-883 (peptide)
peptide: YCAGHSAEYMWKCL
modifications: cysteine pairing not given here; also: fused to phage pIII
notes: as for B3
Take B13: the “Anti-CD28 Fab signal … of CD28” value in test [3] came to 0.11. Also, the “Anti-CD28 Fab signal (phage binding ELISA)” value in test [4] is 1.71.

B14: Phage-867 (peptide)
peptide: YCSGHLPEYMGKCL
modifications: cysteine pairing not given here; also: fused to phage pIII coat protein (sequence and linker not given here)
notes: as for B4
For the molecule B14, in test [5], the “Anti-CD28 Fab signal … of CD28” value is 0.1. Besides, the “Anti-CD28 Fab (SEQ ID NOs: 696, 697) signal” value in test [6] is 1.73.

B15: Phage-868 (peptide)
peptide: YCDGHAEEYLWKCL
modifications: cysteine pairing not given here; also: fused to phage pIII coat protein (sequence and linker not given here)
notes: as for B4
As to B15, the “Anti-CD28 Fab signal … of CD28” value in test [5] worked out at 0.06. In addition, the “Anti-CD28 Fab (SEQ ID NOs: 696, 697) signal” value in test [6] was found to be 1.73.

B16: Phage-854 (peptide)
peptide: YCEGHLPEYMQKCL
notes: as for B1
Regarding B16, the “Anti-CD28 Fab (SEQ ID NOs: 696, 697) signal” value in test [1] turned out to be 1.75. The “Anti-CD28 Fab signal … of CD28” value in test [2] worked out at 0.07.

B17: Phage-862 (peptide)
peptide: YCEGHLPDYMQKCL
notes: as for B1
For B17, the “Anti-CD28 Fab (SEQ ID NOs: 696, 697) signal” value in test [1] was 1.73. Further, in test [2], the “Anti-CD28 Fab signal … of CD28” value is 0.07.

B18: Phage-853 (peptide)
peptide: YCSGHLPEYMQKCL
notes: as for B1
Consider B18, for which the “Anti-CD28 Fab (SEQ ID NOs: 696, 697) signal” value in test [1] was determined as 1.75. Further, the “Anti-CD28 Fab signal … of CD28” value in test [2] was determined as 0.08.

B19: Phage-858 (peptide)
peptide: YCDGHAEKYMQKCL
notes: as for B1
In the case of B19, the “Anti-CD28 Fab (SEQ ID NOs: 696, 697) signal” value in test [1] was found to be 1.74. Moreover, the “Anti-CD28 Fab signal … of CD28” value in test [2] stood at 0.06.

B20: Phage-866 (peptide)
peptide: YCDGHLPEYIFKCL
modifications: cysteine pairing not given here; also: fused to phage pIII coat protein (sequence and linker not given here)
notes: as for B4
On to B20, for which the “Anti-CD28 Fab signal … of CD28” value in test [5] is 0.09. Besides, the “Anti-CD28 Fab (SEQ ID NOs: 696, 697) signal” value in test [6] amounted to 1.73.

B21: Phage-861 (peptide)
peptide: YCSGHSAEYMLKCL
notes: as for B1
Consider B21, for which the “Anti-CD28 Fab (SEQ ID NOs: 696, 697) signal” value in test [1] was 1.73. In addition, in test [2], the “Anti-CD28 Fab signal … of CD28” value was found to be 0.08.

B22: Phage-859 (peptide)
peptide: YCEGHAIEYLAKCL
notes: as for B1
As for B22, the “Anti-CD28 Fab (SEQ ID NOs: 696, 697) signal” value in test [1] stood at 1.74. Moreover, in test [2], the “Anti-CD28 Fab signal … of CD28” value came to 0.07.

B23: Phage-885 (peptide)
peptide: YCAGHSMEYMAKCL
modifications: cysteine pairing not given here; also: fused to phage pIII
notes: as for B3
B23: the “Anti-CD28 Fab signal … of CD28” value in test [3] turned out to be 0.07. Besides, the “Anti-CD28 Fab signal (phage binding ELISA)” value in test [4] worked out at 1.71.

B24: Phage-870 (peptide)
peptide: YCDGHSGVYMWKCL
notes: as for B4
Consider B24, for which the “Anti-CD28 Fab signal … of CD28” value in test [5] was found to be 0.08. The “Anti-CD28 Fab (SEQ ID NOs: 696, 697) signal” value in test [6] amounted to 1.73.

B25: Phage-887 (peptide)
peptide: YCDGHSLAYIAKCL
modifications: cysteine pairing not given here; also: fused to phage pIII
notes: as for B3
On to B25, for which the “Anti-CD28 Fab signal … of CD28” value in test [3] is 0.06. Further, the “Anti-CD28 Fab signal (phage binding ELISA)” value in test [4] is 1.7.

B26: Phage-877 (peptide)
peptide: YCQGHLPVYMEKCL
notes: as for B4
B26: the “Anti-CD28 Fab signal … of CD28” value in test [5] turned out to be 0.06. The “Anti-CD28 Fab (SEQ ID NOs: 696, 697) signal” value in test [6] stood at 1.72.

B27: Phage-872 (peptide)
peptide: YCDGHAIQYIGKCL
notes: as for B4
Turning to B27, the “Anti-CD28 Fab signal … of CD28” value in test [5] was 0.09. Also, the “Anti-CD28 Fab (SEQ ID NOs: 696, 697) signal” value in test [6] stood at 1.72.

B28: Phage-863 (peptide)
peptide: YCDGHLEEYMVKCM
notes: as for B1
Turning to B28, the “Anti-CD28 Fab (SEQ ID NOs: 696, 697) signal” value in test [1] was determined as 1.73. In test [2], the “Anti-CD28 Fab signal … of CD28” value was found to be 0.06.

B29: Phage-871 (peptide)
peptide: YCDGHTQAYIQKCL
notes: as for B4
In the case of B29, in test [5], the “Anti-CD28 Fab signal … of CD28” value worked out at 0.06. For the same molecule, in test [6], the “Anti-CD28 Fab (SEQ ID NOs: 696, 697) signal” value worked out at 1.73.

B30: Phage-869 (peptide)
peptide: YCAGHSAEYMAKCL
notes: as for B4
As for B30, in test [5], the “Anti-CD28 Fab signal … of CD28” value amounted to 0.07. For the same molecule, in test [6], the “Anti-CD28 Fab (SEQ ID NOs: 696, 697) signal” value stood at 1.73.

B31: Phage-855 (peptide)
peptide: YCDGHSLQYMDKCL
notes: as for B1
In the case of B31, the “Anti-CD28 Fab (SEQ ID NOs: 696, 697) signal” value in test [1] is 1.75. Besides, in test [2], the “Anti-CD28 Fab signal … of CD28” value came out at 0.06.

B32: Phage-860 (peptide)
peptide: YCEGHSAEYMEKCL
notes: as for B1
As for B32, in test [1], the “Anti-CD28 Fab (SEQ ID NOs: 696, 697) signal” value was 1.73. Further, the “Anti-CD28 Fab signal … of CD28” value in test [2] was determined as 0.07.

B33: Phage-888 (peptide)
peptide: YCAGHTQEYMYKCL
modifications: cysteine pairing not given here; also: fused to phage pIII
notes: as for B3
For B33, in test [3], the “Anti-CD28 Fab signal … of CD28” value came out at 0.05. Further, the “Anti-CD28 Fab signal (phage binding ELISA)” value in test [4] came out at 1.7.

B34: Phage-884 (peptide)
peptide: YCDGHLQIYMHKCL
modifications: cysteine pairing not given here; also: fused to phage pIII
notes: as for B3
For B34, the “Anti-CD28 Fab signal … of CD28” value in test [3] was found to be 0.1. In test [4], the “Anti-CD28 Fab signal (phage binding ELISA)” value was 1.71.

B35: Phage-880 (peptide)
peptide: YCAGHLPEYLDKCL
modifications: cysteine pairing not given here; also: fused to phage pIII
notes: as for B3
As for B35, in test [3], the “Anti-CD28 Fab signal … of CD28” value was 0.07. Also, the “Anti-CD28 Fab signal (phage binding ELISA)” value in test [4] is 1.71.

B36: Phage-881 (peptide)
peptide: YCDGHSREYMVKCL
modifications: cysteine pairing not given here; also: fused to phage pIII
notes: as for B3
With B36, the “Anti-CD28 Fab signal … of CD28” value in test [3] turned out to be 0.06. Further, the “Anti-CD28 Fab signal (phage binding ELISA)” value in test [4] worked out at 1.71.
